Source: patent US20060051832A1, “Modified sarcosine oxidase, process for producing the same and reagent composition using the same” (Toyo Boseki Kabushiki Kaisha, priority 2002, published 2006)

Legend:
Type in all cases: biochemical, Arthrobacter sp. TE1826
[1] = substrate: CNCC(=O)O; experiment: Km of modified sarcosine oxidase SAOM5B; settings: other: SAOM5B, 37° C., pH 8.0
Procedure: (§1) • 100 mM Tris-HCl buffer (pH 8.0) (containing 200 mM sarcosine and 0.1% Triton X-100) • 0.1% 4-aminoantipyrine • 0.1% phenol • 25 U/mL peroxidase <Measurement Condition>
(§2) A reaction mixture is prepared by mixing the above Tris-HCl buffer, 4-aminoantipyrine solution, phenol solution and peroxidase solution at a ratio of 5:1:2:2. The reaction mixture (1 mL) is taken to a test tube, preliminarily warmed at 37° C. for about 5 min, and 0.05 mL of an enzyme solution is added to start the reaction. The reaction at 37° C. is performed accurately for 10 min, then 2.0 mL of an aqueous solution of 0.25% SDS is added to stop the reaction, and an absorbance at 500 nm of this solution is measured. In a blind test, distilled water instead of the enzyme solution is added to the reagent mixture, and the same manipulation is followed to measure the absorbance. […] The reactivity to proline was measured as a relative ratio of activities when sarcosine in the above reagent was replaced by L-proline at the same concentration. […]
(§3) Various sarcosine oxidases obtained in Example 3B and Comparative Example 1 were evaluated.
(§4) Action on proline was calculated from a relative ratio (%) of the enzyme activity using L-proline as the substrate to the enzyme activity suing sarcosine as the substrate in the above activity measurement method. […]

[2] = substrate: CNCC(=O)O; experiment: Km of modified sarcosine oxidase SAOM7B; settings: other: SAOM7B, 37° C., pH 8.0
Procedure: as §1, §2, §3, §4

[3] = substrate: CNCC(=O)O; experiment: Km of unmodified sarcosine oxidase (control, Comparative Example 1); settings: other: unmodified (control), 37° C., pH 8.0
Procedure: as §1, §2, §3, §4

[4] = substrate: CNCC(=O)O; experiment: Km of modified sarcosine oxidase SAOM1B; settings: other: SAOM1B, K89R, 37° C., pH 8.0
Procedure: as §1, §2, §3, §4

[5] = substrate: CNCC(=O)O; experiment: Km of modified sarcosine oxidase SAOM8B; settings: other: SAOM8B, 37° C., pH 8.0
Procedure: as §1, §2, §3, §4

[6] = substrate: CNCC(=O)O; experiment: Km of modified sarcosine oxidase SAOM2B; settings: other: SAOM2B, V94G, 37° C., pH 8.0
Procedure: as §1, §2, §3, §4

[7] = substrate: CNCC(=O)O; experiment: Km of modified sarcosine oxidase SAOM6B; settings: other: SAOM6B, 37° C., pH 8.0
Procedure: as §1, §2, §3, §4

B1: Arthrobacter sp. TE1826 sarcosine oxidase (SEQ ID NO:1) variant SAOM5B, V94G, E250Q, K89R (Arthrobacter sp. TE1826; E250Q/K89R/V94G) (protein)
chain: MSIKKDYDVIVVGAGSMGMAAGYYLSKQGVKTLLVDSFHPPHTNGSHHGDTRIIRHAYGEGREYVPFALRAQELWYELEKETHHKIFTRTGVLGFGPKGEAPFVAETMEAAKEHSLDVDLLEGSEINKRWPGVTVPENYNAIFEKNSGVLFSENCIRAYRELAEANGAKVLTYTPVEDFEIAEDFVKIQTAYGSFTASKLIVSMGAWNSKLLSKLNIEIPLQPYRQVVGFFECDEKKYSNTHGYPAFMVQVPTGIYYGFPSFGGCGLKIGYHTYGQKIDPDTINREFGIYPEDEGNIRKFLETYMPGATGELKSGDVCMYTKTPDEHFVIDLHPQFSNVAIAAGFSGHGFKFSSVVGETLSQLAVTGKTEHDISIFSINRPALKQKETI
Km [1]: 3.3 mM mM

B2: Arthrobacter sp. TE1826 sarcosine oxidase (SEQ ID NO:1) variant SAOM7B, K89R, V94G, M204A, S213P, E250Q (Arthrobacter sp. TE1826; E250Q/K89R/M204A/S213P/V94G) (protein)
chain: MSIKKDYDVIVVGAGSMGMAAGYYLSKQGVKTLLVDSFHPPHTNGSHHGDTRIIRHAYGEGREYVPFALRAQELWYELEKETHHKIFTRTGVLGFGPKGEAPFVAETMEAAKEHSLDVDLLEGSEINKRWPGVTVPENYNAIFEKNSGVLFSENCIRAYRELAEANGAKVLTYTPVEDFEIAEDFVKIQTAYGSFTASKLIVSAGAWNSKLLPKLNIEIPLQPYRQVVGFFECDEKKYSNTHGYPAFMVQVPTGIYYGFPSFGGCGLKIGYHTYGQKIDPDTINREFGIYPEDEGNIRKFLETYMPGATGELKSGDVCMYTKTPDEHFVIDLHPQFSNVAIAAGFSGHGFKFSSVVGETLSQLAVTGKTEHDISIFSINRPALKQKETI
Km [2]: 3.4 mM mM

B3: Arthrobacter sp. TE1826 sarcosine oxidase, wild type (unmodified), SEQ ID NO:1 (Arthrobacter sp. TE1826) (protein)
chain: MSIKKDYDVIVVGAGSMGMAAGYYLSKQGVKTLLVDSFHPPHTNGSHHGDTRIIRHAYGEGREYVPFALRAQELWYELEKETHHKIFTKTGVLVFGPKGEAPFVAETMEAAKEHSLDVDLLEGSEINKRWPGVTVPENYNAIFEKNSGVLFSENCIRAYRELAEANGAKVLTYTPVEDFEIAEDFVKIQTAYGSFTASKLIVSMGAWNSKLLSKLNIEIPLQPYRQVVGFFECDEKKYSNTHGYPAFMVEVPTGIYYGFPSFGGCGLKIGYHTYGQKIDPDTINREFGIYPEDEGNIRKFLETYMPGATGELKSGDVCMYTKTPDEHFVIDLHPQFSNVAIAAGFSGHGFKFSSVVGETLSQLAVTGKTEHDISIFSINRPALKQKETI
Km [3]: 3.4 mM mM

B4: Arthrobacter sp. TE1826 sarcosine oxidase (SEQ ID NO:1) variant SAOM1B, K89R (Arthrobacter sp. TE1826; K89R) (protein)
chain: MSIKKDYDVIVVGAGSMGMAAGYYLSKQGVKTLLVDSFHPPHTNGSHHGDTRIIRHAYGEGREYVPFALRAQELWYELEKETHHKIFTRTGVLVFGPKGEAPFVAETMEAAKEHSLDVDLLEGSEINKRWPGVTVPENYNAIFEKNSGVLFSENCIRAYRELAEANGAKVLTYTPVEDFEIAEDFVKIQTAYGSFTASKLIVSMGAWNSKLLSKLNIEIPLQPYRQVVGFFECDEKKYSNTHGYPAFMVEVPTGIYYGFPSFGGCGLKIGYHTYGQKIDPDTINREFGIYPEDEGNIRKFLETYMPGATGELKSGDVCMYTKTPDEHFVIDLHPQFSNVAIAAGFSGHGFKFSSVVGETLSQLAVTGKTEHDISIFSINRPALKQKETI
Km [4]: 3.4 mM mM

B5: Arthrobacter sp. TE1826 sarcosine oxidase (SEQ ID NO:1) variant SAOM8B, K89R, V94G, N166K, M204A, S213P, E250Q (Arthrobacter sp. TE1826; … (protein)
chain: MSIKKDYDVIVVGAGSMGMAAGYYLSKQGVKTLLVDSFHPPHTNGSHHGDTRIIRHAYGEGREYVPFALRAQELWYELEKETHHKIFTRTGVLGFGPKGEAPFVAETMEAAKEHSLDVDLLEGSEINKRWPGVTVPENYNAIFEKNSGVLFSENCIRAYRELAEAKGAKVLTYTPVEDFEIAEDFVKIQTAYGSFTASKLIVSAGAWNSKLLPKLNIEIPLQPYRQVVGFFECDEKKYSNTHGYPAFMVQVPTGIYYGFPSFGGCGLKIGYHTYGQKIDPDTINREFGIYPEDEGNIRKFLETYMPGATGELKSGDVCMYTKTPDEHFVIDLHPQFSNVAIAAGFSGHGFKFSSVVGETLSQLAVTGKTEHDISIFSINRPALKQKETI
Km [5]: 3.4 mM mM

B6: Arthrobacter sp. TE1826 sarcosine oxidase (SEQ ID NO:1) variant SAOM2B, V94G (Arthrobacter sp. TE1826; V94G) (protein)
chain: MSIKKDYDVIVVGAGSMGMAAGYYLSKQGVKTLLVDSFHPPHTNGSHHGDTRIIRHAYGEGREYVPFALRAQELWYELEKETHHKIFTKTGVLGFGPKGEAPFVAETMEAAKEHSLDVDLLEGSEINKRWPGVTVPENYNAIFEKNSGVLFSENCIRAYRELAEANGAKVLTYTPVEDFEIAEDFVKIQTAYGSFTASKLIVSMGAWNSKLLSKLNIEIPLQPYRQVVGFFECDEKKYSNTHGYPAFMVEVPTGIYYGFPSFGGCGLKIGYHTYGQKIDPDTINREFGIYPEDEGNIRKFLETYMPGATGELKSGDVCMYTKTPDEHFVIDLHPQFSNVAIAAGFSGHGFKFSSVVGETLSQLAVTGKTEHDISIFSINRPALKQKETI
Km [6]: 4.1 mM mM

B7: Arthrobacter sp. TE1826 sarcosine oxidase (SEQ ID NO:1) variant SAOM6B, K89R, V94G, S213P, E250Q (Arthrobacter sp. TE1826; E250Q/K89R/S213P/V94G) (protein)
chain: MSIKKDYDVIVVGAGSMGMAAGYYLSKQGVKTLLVDSFHPPHTNGSHHGDTRIIRHAYGEGREYVPFALRAQELWYELEKETHHKIFTRTGVLGFGPKGEAPFVAETMEAAKEHSLDVDLLEGSEINKRWPGVTVPENYNAIFEKNSGVLFSENCIRAYRELAEANGAKVLTYTPVEDFEIAEDFVKIQTAYGSFTASKLIVSMGAWNSKLLPKLNIEIPLQPYRQVVGFFECDEKKYSNTHGYPAFMVQVPTGIYYGFPSFGGCGLKIGYHTYGQKIDPDTINREFGIYPEDEGNIRKFLETYMPGATGELKSGDVCMYTKTPDEHFVIDLHPQFSNVAIAAGFSGHGFKFSSVVGETLSQLAVTGKTEHDISIFSINRPALKQKETI
Km [7]: 3.5 mM mM
